This is an account of results in the RNAGym collection of RNA variant scans (doi:10.1073/pnas.2313332121).

Fewer inactive variants are shown than the library holds. Some results are limits rather than exact numbers.

B1: TPR 5TU (parent)
chain: GGAUCUUCUCGAUCUAACAAAAAAGACAAAUCUGCCACAAAGCUUGAGAGCAUCUUCGGAUGCAGAGGCGGCAGCCUUCGGUGGCGCGAUAGCGCCAACGUUCUCAACUAUGACACGCAAAACGCGUGCUCCGUUGAAUGGAGUUUAUCAUG

Variants of B1 are the subject of the data set. Put plainly: polymerase ribozyme fitness, log enrichment relative to wild type (log ratio); higher = more active; in vitro selection for triplet polymerase activity. The gist of the method:
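The heterodimeric triplet polymerase ribozyme's subunits were each mutagenized into PCR-built libraries and transcribed. Every library was selected once, in triplicate, by annealing with a biotinylated primer, the partner subunit and triplets, incubating frozen at −7 °C, gel-excising extended constructs, capturing on streptavidin beads and running RT-PCR. Input and output libraries were Illumina-sequenced, with genotypes kept only at ≥10 input reads and ≥1 read per output. Fitness, from inverse-variance-weighted replicate averages, is the base-2 logarithm of genotype enrichment over wild-type enrichment.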
On to U13A A20U C35A G50A G83C C118G A119U C132U, for which the “polymerase ribozyme fitness (log ratio)” value was at most -4.2.

On to C14G U56A, for which the “polymerase ribozyme fitness (log ratio)” value is -2.57.

On to A12U A47G C118G, for which the “polymerase ribozyme fitness (log ratio)” value was -1.11.

As for C14G G94C, the “polymerase ribozyme fitness (log ratio)” value was -2.23.

For C14G G94A, the “polymerase ribozyme fitness (log ratio)” value was -2.61.

As for C14G U15A G68C G83A U111C, the “polymerase ribozyme fitness (log ratio)” value is at most -4.2.

In the case of U13G U15A C51U C96A A121G, the “polymerase ribozyme fitness (log ratio)” value is -2.76.

Regarding A12U A23U A40U C87A G88C G117U, the “polymerase ribozyme fitness (log ratio)” value was at most -4.2.

A12U G34C G46A G83A A121U G141U: the “polymerase ribozyme fitness (log ratio)” value was at most -4.2.

Consider U13A G74C C93U G124A, for which the “polymerase ribozyme fitness (log ratio)” value is at most -4.2.

Regarding U13C G50U G59A U82C A121U G136A, the “polymerase ribozyme fitness (log ratio)” value is -1.14.

Consider C14G G48A A119G, for which the “polymerase ribozyme fitness (log ratio)” value was -3.43.

For the variant U13G C36U A52G U55G C69U C76G G83C C114U C149A, the “polymerase ribozyme fitness (log ratio)” value is at most -4.2.

As to C14G C72U, the “polymerase ribozyme fitness (log ratio)” value was -3.04.

As for U13A A22U A89G C95A, the “polymerase ribozyme fitness (log ratio)” value is -1.67.

U13G A137U: the “polymerase ribozyme fitness (log ratio)” value is at most -4.2.

Take A12U A21U C87G C99U C125U: the “polymerase ribozyme fitness (log ratio)” value was at most -4.2.

Consider A12G U55A C76A C93A A120G, for which the “polymerase ribozyme fitness (log ratio)” value is -3.73.

As for U13G G50U C93U, the “polymerase ribozyme fitness (log ratio)” value is -3.9.

With U13A U15C A28G U33G C79A C118U U148G, the “polymerase ribozyme fitness (log ratio)” value is at most -4.2.

Turning to A12U C14U A17U G59A C93U A122U G143C, the “polymerase ribozyme fitness (log ratio)” value is at most -4.2.

With U13C C54U C87U, the “polymerase ribozyme fitness (log ratio)” value is -1.35.

For the variant U13C A20C G83U C85A C93A, the “polymerase ribozyme fitness (log ratio)” value was at most -4.2.

For C14U A21U G50C U56A A66C A91U G143C, the “polymerase ribozyme fitness (log ratio)” value is at most -4.2.

On to C14A C38U G84U, for which the “polymerase ribozyme fitness (log ratio)” value is -3.

On to U13C A16U G84A U109G, for which the “polymerase ribozyme fitness (log ratio)” value is -1.88.

With U13G G59U C96U, the “polymerase ribozyme fitness (log ratio)” value is -0.998.

Take A12U C36U G84U: the “polymerase ribozyme fitness (log ratio)” value is -4.11.

As to U13C G88A C99G, the “polymerase ribozyme fitness (log ratio)” value is -4.01.

Consider C14G G81A C87U A106C G140U, for which the “polymerase ribozyme fitness (log ratio)” value was at most -4.2.

On to A12G U53A, for which the “polymerase ribozyme fitness (log ratio)” value was -0.69.

On to C14A A37U G50U G94U A106U, for which the “polymerase ribozyme fitness (log ratio)” value was at most -4.2.

Regarding C14G A16U A39G G124A, the “polymerase ribozyme fitness (log ratio)” value is at most -4.2.

As for U13A U45A G84A, the “polymerase ribozyme fitness (log ratio)” value was at most -4.2.

For A12U C87U, the “polymerase ribozyme fitness (log ratio)” value is -1.1.

Consider U13G C14U A16G G59A U90G, for which the “polymerase ribozyme fitness (log ratio)” value was -4.01.

With C14A C76G C87A A119G A138C U148A, the “polymerase ribozyme fitness (log ratio)” value is at most -4.2.

For the variant A12U A147U, the “polymerase ribozyme fitness (log ratio)” value turned out to be 0.945.

For the variant U13A C35U C57U, the “polymerase ribozyme fitness (log ratio)” value is -1.42.

For C14G A20U, the “polymerase ribozyme fitness (log ratio)” value was -2.37.

Consider U13A U15C A26C C93A, for which the “polymerase ribozyme fitness (log ratio)” value was -3.05.

Regarding C14G A60U G86U, the “polymerase ribozyme fitness (log ratio)” value was at most -4.2.

Regarding U13G C69A, the “polymerase ribozyme fitness (log ratio)” value was at most -4.2.

Take A12U G48U U53A C54G G71A C75G G86A C95U A119C: the “polymerase ribozyme fitness (log ratio)” value is at most -4.2.

On to C14A U53A G94C, for which the “polymerase ribozyme fitness (log ratio)” value is -3.67.

With C14G A37U G86U A89U A119U C132G, the “polymerase ribozyme fitness (log ratio)” value is at most -4.2.

As to U13G C57U C96G, the “polymerase ribozyme fitness (log ratio)” value is -1.66.

Consider A12U C57G U78C C93U U127A, for which the “polymerase ribozyme fitness (log ratio)” value is at most -4.2.

For U13G G25A G83A, the “polymerase ribozyme fitness (log ratio)” value is -4.07.

Consider A12U U15G U56A G71C G84A G117U A120U A147U, for which the “polymerase ribozyme fitness (log ratio)” value is -3.53.

Regarding C14G C36U U55G G68U C93G U134A, the “polymerase ribozyme fitness (log ratio)” value is at most -4.2.

On to C14G G83C G117U, for which the “polymerase ribozyme fitness (log ratio)” value was -2.76.

Consider C14G A29U A30G C96U, for which the “polymerase ribozyme fitness (log ratio)” value was at most -4.2.

In the case of U13A C76U C105G C114U, the “polymerase ribozyme fitness (log ratio)” value is at most -4.2.

On to C14G C85G C103A, for which the “polymerase ribozyme fitness (log ratio)” value is at most -4.2.

Consider U13C C36A C85G C99A A138C, for which the “polymerase ribozyme fitness (log ratio)” value was at most -4.2.

On to A12U C14U A121U C125U, for which the “polymerase ribozyme fitness (log ratio)” value was -0.306.

C14G A21G G34A A37C G50C C57G A60C A64G: the “polymerase ribozyme fitness (log ratio)” value was at most -4.2.

For U13G U56A C57U C87A G88C A89U A121U C125A U148A, the “polymerase ribozyme fitness (log ratio)” value is at most -4.2.

As to U13A A23U G59A C87U, the “polymerase ribozyme fitness (log ratio)” value was at most -4.2.

With A12U U33A C35G C57A U77C U101C U134A, the “polymerase ribozyme fitness (log ratio)” value was at most -4.2.

As for C14G, the “polymerase ribozyme fitness (log ratio)” value was -2.09.

On to C14A, for which the “polymerase ribozyme fitness (log ratio)” value is -1.08.

With C14U, the “polymerase ribozyme fitness (log ratio)” value was -1.06.

C14G A22C A73U: the “polymerase ribozyme fitness (log ratio)” value was -3.92.

With C14G U15G A24G G58C C87G C108A C114U G136A, the “polymerase ribozyme fitness (log ratio)” value is at most -4.2.

As for C14G A20C G50U U53A G126U U139A, the “polymerase ribozyme fitness (log ratio)” value is at most -4.2.

In the case of A12U U56C G59A G88C, the “polymerase ribozyme fitness (log ratio)” value is at most -4.2.

As for C14G C27A A37U C54U G67A G94U C105G, the “polymerase ribozyme fitness (log ratio)” value was at most -4.2.

Take C14G A52G G141C: the “polymerase ribozyme fitness (log ratio)” value was -3.34.

For U13C A39C C72A C76G C99G G140U A147C, the “polymerase ribozyme fitness (log ratio)” value was at most -4.2.

In the case of U13C C54U C103U, the “polymerase ribozyme fitness (log ratio)” value was -1.54.

On to C14A A21C A22C, for which the “polymerase ribozyme fitness (log ratio)” value is -0.829.

Regarding C14G G141A, the “polymerase ribozyme fitness (log ratio)” value was -1.87.

For the variant U13A A39U U45A G59C C72U G94C U101A A142C, the “polymerase ribozyme fitness (log ratio)” value was at most -4.2.

Regarding C14G A107G G136U, the “polymerase ribozyme fitness (log ratio)” value is at most -4.2.

Consider C14U A21C C27U C36A G62U G80C G86A A137C, for which the “polymerase ribozyme fitness (log ratio)” value was -3.96.

In the case of C14A A40G C43G G86U U135C G143C U148G, the “polymerase ribozyme fitness (log ratio)” value is at most -4.2.

Take C14G C54G G68C C85U C105A C114A A137U: the “polymerase ribozyme fitness (log ratio)” value was at most -4.2.

Take U13G G48A C93A C125G: the “polymerase ribozyme fitness (log ratio)” value is at most -4.2.

Consider C14A A19U A21C A60G, for which the “polymerase ribozyme fitness (log ratio)” value was -1.8.

Consider A12U G92U C125U, for which the “polymerase ribozyme fitness (log ratio)” value was -1.06.

As for U13G C93G, the “polymerase ribozyme fitness (log ratio)” value is -3.88.

Consider U13G U78G G86U G140A G141A, for which the “polymerase ribozyme fitness (log ratio)” value was at most -4.2.
